Source: article PMC7655957 (2020)

T1: WT_(ZIP+)/WT_(ZIP−), BICD2_(1–98) heterodimer with C-terminal ZIP+/ZIP− leucine zipper (mouse (cDNA, methods); called human in …, UniProt Q921C5-1 1-98; Q921C5-1 1-98)
T1 chain 1: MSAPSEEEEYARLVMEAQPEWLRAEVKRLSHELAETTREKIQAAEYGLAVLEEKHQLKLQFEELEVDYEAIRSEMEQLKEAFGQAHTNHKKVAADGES
T1 chain 2: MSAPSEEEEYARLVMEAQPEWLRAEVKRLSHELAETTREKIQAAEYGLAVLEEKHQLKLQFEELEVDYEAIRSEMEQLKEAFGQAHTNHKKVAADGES


Tests used:
[1] = molecular target: MBP-LIC1FL, full-length dynein light intermediate chain-1 (human, UniProt Q9Y6G9 1-523); assay: ITC; 5 mM EGTA, 30 °C
[2] = molecular target: T1, WT_(ZIP+)/WT_(ZIP−), BICD2_(1–98) …; assay: ITC; one-site binding model (rejected, poor fit)

Sequence of MBP-LIC1FL, full-length dynein light intermediate chain-1 (Q9Y6G9 whole entry): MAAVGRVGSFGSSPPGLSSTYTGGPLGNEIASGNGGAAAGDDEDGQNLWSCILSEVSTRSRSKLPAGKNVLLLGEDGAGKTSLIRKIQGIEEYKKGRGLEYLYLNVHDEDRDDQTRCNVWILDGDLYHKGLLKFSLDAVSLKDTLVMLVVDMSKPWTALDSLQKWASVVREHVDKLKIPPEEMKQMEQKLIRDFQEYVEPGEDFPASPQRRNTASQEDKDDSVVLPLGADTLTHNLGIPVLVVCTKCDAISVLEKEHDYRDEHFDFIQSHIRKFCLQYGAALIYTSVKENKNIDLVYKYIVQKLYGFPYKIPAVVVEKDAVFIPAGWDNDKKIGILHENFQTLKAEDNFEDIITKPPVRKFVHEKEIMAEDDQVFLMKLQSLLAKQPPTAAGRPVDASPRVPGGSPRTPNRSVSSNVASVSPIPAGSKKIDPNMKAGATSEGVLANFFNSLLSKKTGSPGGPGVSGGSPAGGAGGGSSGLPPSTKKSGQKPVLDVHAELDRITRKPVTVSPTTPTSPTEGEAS

| Kd [1] | Kd [2] | Binder |
| --- | --- | --- |
| 15.5 µM | – | NIN_(1–87), first EF-hand pair of Ninein (domain or fragment) MDEVEQDQHEARLKELFDSFDTTGTGSLGQEELTDLCHMLSLEEVAPVLQQTLLQDNLLGRVHFDQFKEALILILSRTLSNEEHFQE |
| – | 3 µM | NMKAGATSEGVLANFFNSLLSKKTGS [LIC1_(433–458), amphipathic helix of the dynein light intermediate chain-1] |
| 3.1 µM | – | FIP3_(206–270), EF-hand pair of Rab11 family-interacting protein 3 (domain or fragment) RLRAVFDALDGDGDGFVRIEDFIQFATVYGAEQVKDLTKYLDPSGLGVISFEDFYQGITAIRNGD |
